T1: FcγRIIb extracellular domain with C-terminal His tag (human, UniProt P31994 43-217)
T1 construct: extracellular domain; also called 2b; FcgRIIb
T1 sequence (looked up): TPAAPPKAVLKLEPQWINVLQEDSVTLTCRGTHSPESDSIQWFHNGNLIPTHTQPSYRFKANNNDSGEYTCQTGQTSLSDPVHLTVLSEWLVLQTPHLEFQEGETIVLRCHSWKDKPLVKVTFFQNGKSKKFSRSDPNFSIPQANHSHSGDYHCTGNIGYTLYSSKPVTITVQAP

T2: FcγRIIa R (human, UniProt P12318 34-217)
T2 construct: extracellular domain; also called FcgRIIa R; FcγRIIa type R; not shown: His tag at the C terminus
T2 sequence (looked up): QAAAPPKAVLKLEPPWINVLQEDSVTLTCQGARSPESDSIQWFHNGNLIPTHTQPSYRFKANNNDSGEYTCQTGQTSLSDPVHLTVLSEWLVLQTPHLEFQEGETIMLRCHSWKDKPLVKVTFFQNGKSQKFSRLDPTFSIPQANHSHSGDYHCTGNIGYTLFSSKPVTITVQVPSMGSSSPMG

T3: FcγRIIa H (human, UniProt P12318 34-217)
T3 construct: extracellular domain; also called FcγRIIa type H; 2aH; not shown: His tag at the C terminus
T3 sequence (looked up): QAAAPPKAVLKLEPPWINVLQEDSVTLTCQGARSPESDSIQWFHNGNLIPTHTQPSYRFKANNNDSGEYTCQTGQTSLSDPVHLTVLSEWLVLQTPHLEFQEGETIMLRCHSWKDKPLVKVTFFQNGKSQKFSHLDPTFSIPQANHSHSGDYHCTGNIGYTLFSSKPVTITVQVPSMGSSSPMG

T4: FcγRIIb (human, UniProt P31994 43-217)
T4 construct: extracellular domain; also called 2b; not shown: His tag at the C terminus
T4 sequence (looked up): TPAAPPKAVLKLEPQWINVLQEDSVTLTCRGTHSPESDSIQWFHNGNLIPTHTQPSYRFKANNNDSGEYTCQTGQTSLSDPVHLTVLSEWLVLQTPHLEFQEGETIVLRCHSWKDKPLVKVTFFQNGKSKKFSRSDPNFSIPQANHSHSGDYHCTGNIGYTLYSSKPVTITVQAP


Assays:
[1] = target: T5, FcγRIa extracellular domain with C-terminal His tag (human, UniProt P12314 16-292); test: SPR; He/Con_1a divided by He/Con_2b (FcγRIa against FcγRIIb)
T5 construct: extracellular domain; also called FcgRI; CD64; not shown: His tag at the C terminus

[2] = target: T5, FcγRIa extracellular domain with …; test: SPR (Biacore), antibody captured, FcγR analyte; relative to GpH7-A5/GpH7-B3/GpL16-k0 = 100
[3] = target: T6, FcγRIIIa extracellular domain with C-terminal His tag (human, UniProt P08637 17-208); test: SPR, binding relative to GpH7-A5/GpH7-B3/GpL16-k0 = 100
T6 construct: extracellular domain; also called 3a; FcgRIIIa

[4] = target: T1, FcγRIIb extracellular domain with …; test: as above
[5] = target: T6, FcγRIIIa extracellular domain with …; test: SPR; ratio of He/Con_3a (FcγRIIIa) to He/Con_2b (FcγRIIb)
Experimental: (§1) The heterodimerized antibodies He Abs in which one of the H chains was introduced with an alteration were assayed for their binding activities to each activating FcγR and inhibitory FcγR according to the method described in Example 4. […] The activating FcγRs in FIGS. 26, 27, 28, and 29 are FcγRIa, FcγRIIa (R), FcγRIIa (H), and FcγRIIIa, respectively.
(§2) Analysis of interaction between objective antibody and the FcγR was carried out using Biacore T100 (GE Healthcare). HBS-EP+ (GE Healthcare) was used as the running buffer, and the measurement temperature was set to 25° C. Chips produced by immobilizing the antigen peptide by the amine coupling method to a Series S Sencor Chip CM5 (GE Healthcare), or alternatively, chips produced by allowing preliminarily biotinylated antigen peptides to interact with and immobilize onto a Series S Sensor Chip SA (certified) (GE Healthcare) were used. Antibodies of interest were captured onto an antigen peptide-immobilized chip, and allowed to interact to each FcγR diluted with running buffer. To regenerate and repeatedly use the chip, the antibodies captured on the chip were washed off by reacting 10 mM glycine-HCl, pH 1.5.

FcγRIIa R [6] = target: T2, FcγRIIa R; test: SPR (Biacore T100); He/Con_2aR divided by He/Con_2b (FcγRIIa R over FcγRIIb)
Experimental: as §1, §2

FcγRIIa R [7] = target: T2, FcγRIIa R; test: SPR (Biacore T100), antibody captured on antigen peptide chip, FcγR as analyte; binding relative to GpH7-A5/GpH7-B3/GpL16-k0 = 100
Experimental: as §1, §2

FcγRIIa H [8] = target: T3, FcγRIIa H; test: SPR (Biacore); He/Con_2aH divided by He/Con_2b (FcγRIIa H over FcγRIIb)
FcγRIIa H [9] = target: T3, FcγRIIa H; test: SPR (Biacore), antibody captured, FcγR as analyte; binding relative to GpH7-A5/GpH7-B3/GpL16-k0 = 100
FcγRIIb = target: T4, FcγRIIb; test: as above

T5 sequence (P12314 16-292): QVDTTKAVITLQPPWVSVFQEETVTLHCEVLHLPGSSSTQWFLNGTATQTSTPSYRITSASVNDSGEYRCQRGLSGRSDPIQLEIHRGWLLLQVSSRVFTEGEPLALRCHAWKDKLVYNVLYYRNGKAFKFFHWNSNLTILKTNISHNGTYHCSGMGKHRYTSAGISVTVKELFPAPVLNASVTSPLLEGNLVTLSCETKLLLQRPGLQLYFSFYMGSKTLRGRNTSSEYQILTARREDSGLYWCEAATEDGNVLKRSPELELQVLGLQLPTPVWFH
T6 sequence (P08637 17-208): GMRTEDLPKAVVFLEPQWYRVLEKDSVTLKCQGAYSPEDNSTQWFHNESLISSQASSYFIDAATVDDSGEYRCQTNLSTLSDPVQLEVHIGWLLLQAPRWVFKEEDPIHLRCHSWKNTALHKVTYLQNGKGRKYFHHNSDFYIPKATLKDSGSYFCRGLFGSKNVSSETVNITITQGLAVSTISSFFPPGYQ

Row | He/Con_3a [3] | He/Con_2b [4] | He_3a/2b (IIIa/IIb) [5] | Binder | other results
1 | 57.7 % of control | 35.3 % of control | 1.64 | GpH7-A5/GpH7-B3 variant G236_03V/GpL16-k0 (antibody, human IgG1, kappa, also called He Ab) heavy 1: not shown heavy 2: not shown light: DIVMTQSPLSLPVTPGEPASISCQASESLVHSNRNTYLHWYLQKPGQSPQLLIYKVSNRFSGVPDRFSGSGSGTDFTLKISRVEAEDVGVYYCSQNTHVPPTFGQGTKVEIERTVAAPSVFIFPPSDEQLKSGTASVVCLLNNFYPREAKVQWKVDNALQSGNSQESVTEQDSKDSTYSLSSTLTLSKADYEKHKVYACEVTHQGLSSPVTKSFNRGEC | –
2 | 59.7 % of control | 31 % of control | 1.93 | GpH7-A5/GpH7-B3 variant G236_07I/GpL16-k0 (antibody, human IgG1, kappa, also called He Ab) heavy 1: not shown heavy 2: not shown light: DIVMTQSPLSLPVTPGEPASISCQASESLVHSNRNTYLHWYLQKPGQSPQLLIYKVSNRFSGVPDRFSGSGSGTDFTLKISRVEAEDVGVYYCSQNTHVPPTFGQGTKVEIERTVAAPSVFIFPPSDEQLKSGTASVVCLLNNFYPREAKVQWKVDNALQSGNSQESVTEQDSKDSTYSLSSTLTLSKADYEKHKVYACEVTHQGLSSPVTKSFNRGEC | –
3 | 62.2 % of control | 51.5 % of control | 1.21 | GpH7-A5/GpH7-B3 variant E269_01G/GpL16-k0 (antibody, human IgG1, kappa, also called He Ab) heavy 1: not shown heavy 2: not shown light: DIVMTQSPLSLPVTPGEPASISCQASESLVHSNRNTYLHWYLQKPGQSPQLLIYKVSNRFSGVPDRFSGSGSGTDFTLKISRVEAEDVGVYYCSQNTHVPPTFGQGTKVEIERTVAAPSVFIFPPSDEQLKSGTASVVCLLNNFYPREAKVQWKVDNALQSGNSQESVTEQDSKDSTYSLSSTLTLSKADYEKHKVYACEVTHQGLSSPVTKSFNRGEC | –
4 | 68.7 % of control | 49.9 % of control | 1.38 | GpH7-A5/GpH7-B3 variant E269_02A/GpL16-k0 (antibody, human IgG1, kappa, also called He Ab) heavy 1: not shown heavy 2: not shown light: DIVMTQSPLSLPVTPGEPASISCQASESLVHSNRNTYLHWYLQKPGQSPQLLIYKVSNRFSGVPDRFSGSGSGTDFTLKISRVEAEDVGVYYCSQNTHVPPTFGQGTKVEIERTVAAPSVFIFPPSDEQLKSGTASVVCLLNNFYPREAKVQWKVDNALQSGNSQESVTEQDSKDSTYSLSSTLTLSKADYEKHKVYACEVTHQGLSSPVTKSFNRGEC | –

The remaining lines, values behind:

Row | Binder | He/Con_3a [3] | He/Con_2b [4] | He_3a/2b (IIIa/IIb) [5] | other results
5 | GpH7-A5/GpH7-B3 variant G237_11K/GpL16-k0 (antibody, human IgG1, kappa, Heterodimerized anti-glypican-3 IgG1; mutation only in the GpH7-B3 H chain; also called He Ab) heavy 1: not shown heavy 2: not shown light: DIVMTQSPLSLPVTPGEPASISCQASESLVHSNRNTYLHWYLQKPGQSPQLLIYKVSNRFSGVPDRFSGSGSGTDFTLKISRVEAEDVGVYYCSQNTHVPPTFGQGTKVEIERTVAAPSVFIFPPSDEQLKSGTASVVCLLNNFYPREAKVQWKVDNALQSGNSQESVTEQDSKDSTYSLSSTLTLSKADYEKHKVYACEVTHQGLSSPVTKSFNRGEC | – | – | – | He_1a/2b (Ia/IIb) [1]: 7.05 ratio; He/Con_1a [2]: 63.3 % of HeCon Ab
6 | GpH7-A5/GpH7-B3 variant G237_11K/GpL16-k0 (antibody, human IgG1, kappa, Heterodimerized anti-glypican-3 IgG1; mutation in one H chain only; also called He Ab) heavy 1: not shown heavy 2: not shown light: DIVMTQSPLSLPVTPGEPASISCQASESLVHSNRNTYLHWYLQKPGQSPQLLIYKVSNRFSGVPDRFSGSGSGTDFTLKISRVEAEDVGVYYCSQNTHVPPTFGQGTKVEIERTVAAPSVFIFPPSDEQLKSGTASVVCLLNNFYPREAKVQWKVDNALQSGNSQESVTEQDSKDSTYSLSSTLTLSKADYEKHKVYACEVTHQGLSSPVTKSFNRGEC | – | – | – | He_2aR/2b (IIaR/IIb) (FcγRIIa R [6]): 1.9 ratio; He/Con_2aR (IIaR binding) (FcγRIIa R [7]): 17.1 % of control
7 | GpH7-A5/GpH7-B3 variant G237_12R/GpL16-k0 (antibody, human IgG1, kappa, Heterodimerized anti-glypican-3 IgG1; mutation in one H chain only; also called He Ab) heavy 1: not shown heavy 2: not shown light: DIVMTQSPLSLPVTPGEPASISCQASESLVHSNRNTYLHWYLQKPGQSPQLLIYKVSNRFSGVPDRFSGSGSGTDFTLKISRVEAEDVGVYYCSQNTHVPPTFGQGTKVEIERTVAAPSVFIFPPSDEQLKSGTASVVCLLNNFYPREAKVQWKVDNALQSGNSQESVTEQDSKDSTYSLSSTLTLSKADYEKHKVYACEVTHQGLSSPVTKSFNRGEC | – | – | – | He_2aR/2b (IIaR/IIb) (FcγRIIa R [6]): 2.47 ratio; He/Con_2aR (IIaR binding) (FcγRIIa R [7]): 24.2 % of control
8 | GpH7-A5/GpH7-B3 variant G236_04F/GpL16-k0 (antibody, human IgG1, kappa, also called He Ab) heavy 1: not shown heavy 2: not shown light: DIVMTQSPLSLPVTPGEPASISCQASESLVHSNRNTYLHWYLQKPGQSPQLLIYKVSNRFSGVPDRFSGSGSGTDFTLKISRVEAEDVGVYYCSQNTHVPPTFGQGTKVEIERTVAAPSVFIFPPSDEQLKSGTASVVCLLNNFYPREAKVQWKVDNALQSGNSQESVTEQDSKDSTYSLSSTLTLSKADYEKHKVYACEVTHQGLSSPVTKSFNRGEC | 87 % of control | 39.3 % of control | 2.21 | –
9 | GpH7-A5/GpH7-B3 variant G236_05P/GpL16-k0 (antibody, human IgG1, kappa, also called He Ab) heavy 1: not shown heavy 2: not shown light: DIVMTQSPLSLPVTPGEPASISCQASESLVHSNRNTYLHWYLQKPGQSPQLLIYKVSNRFSGVPDRFSGSGSGTDFTLKISRVEAEDVGVYYCSQNTHVPPTFGQGTKVEIERTVAAPSVFIFPPSDEQLKSGTASVVCLLNNFYPREAKVQWKVDNALQSGNSQESVTEQDSKDSTYSLSSTLTLSKADYEKHKVYACEVTHQGLSSPVTKSFNRGEC | 37.1 % of control | 19 % of control | 1.95 | –
10 | GpH7-A5/GpH7-B3 variant L235_12R/GpL16-k0 (antibody, human IgG1, kappa, also called He Ab) heavy 1: not shown heavy 2: not shown light: DIVMTQSPLSLPVTPGEPASISCQASESLVHSNRNTYLHWYLQKPGQSPQLLIYKVSNRFSGVPDRFSGSGSGTDFTLKISRVEAEDVGVYYCSQNTHVPPTFGQGTKVEIERTVAAPSVFIFPPSDEQLKSGTASVVCLLNNFYPREAKVQWKVDNALQSGNSQESVTEQDSKDSTYSLSSTLTLSKADYEKHKVYACEVTHQGLSSPVTKSFNRGEC | 41.2 % of control | – | 4.29 | –
11 | GpH7-A5/GpH7-B3 variant G237_12R/GpL16-k0 (antibody, human IgG1, kappa, Heterodimerized anti-glypican-3 IgG1; mutation only in the GpH7-B3 H chain; also called He Ab) heavy 1: not shown heavy 2: not shown light: DIVMTQSPLSLPVTPGEPASISCQASESLVHSNRNTYLHWYLQKPGQSPQLLIYKVSNRFSGVPDRFSGSGSGTDFTLKISRVEAEDVGVYYCSQNTHVPPTFGQGTKVEIERTVAAPSVFIFPPSDEQLKSGTASVVCLLNNFYPREAKVQWKVDNALQSGNSQESVTEQDSKDSTYSLSSTLTLSKADYEKHKVYACEVTHQGLSSPVTKSFNRGEC | – | – | – | He_1a/2b (Ia/IIb) [1]: 6.71 ratio; He/Con_1a [2]: 65.8 % of HeCon Ab
12 | GpH7-A5/GpH7-B3 variant L235_19Q/GpL16-k0 (antibody, human IgG1, kappa, Heterodimerized IgG1; mutation in the GpH7-B3 chain only; also called He Ab) heavy 1: not shown heavy 2: not shown light: DIVMTQSPLSLPVTPGEPASISCQASESLVHSNRNTYLHWYLQKPGQSPQLLIYKVSNRFSGVPDRFSGSGSGTDFTLKISRVEAEDVGVYYCSQNTHVPPTFGQGTKVEIERTVAAPSVFIFPPSDEQLKSGTASVVCLLNNFYPREAKVQWKVDNALQSGNSQESVTEQDSKDSTYSLSSTLTLSKADYEKHKVYACEVTHQGLSSPVTKSFNRGEC | – | – | – | He_2aH/2b (IIaH/IIb) (FcγRIIa H [8]): 1.45 ratio; He/Con_2aH (FcγRIIa H [9]): 62 % of control; He/Con_2b (FcγRIIb): 42.6 % of control

Reference: patent US20150344570A1 (published 2015)
